What all share (test): flow cytometry on cells
(In flow cytometry, cells or beads pass a laser one at a time.)

Experiment [1] has as its target full-length wild-type RSV F on the cell surface (respiratory syncytial virus (strain not stated)) (UniProt P03420).
In experiment [2] the target is T1, full-length RSV F with the PR-DM stabilizing mutations, on the cell surface (Respiratory syncytial virus, strain not …, UniProt P03420, N67I | S215P).
T1 construct: source: FreeStyle 293-F, cotransfected with furin, on the cell surface
The note with it: one partner purified.

In experiment [3] the target is T2, full-length wild-type RSV F on the cell surface (Respiratory syncytial virus, …, UniProt P03420).
T2 construct: also called full-length wild-type F; full-length RSV F; source: FreeStyle 293-F or HeLa cells, cotransfected with furin, on the cell surface
The following applies: one partner purified.

For experiment [4], the target named is T3, full-length RSV F with the DS-Cav1 stabilizing mutations, on the cell surface (Respiratory syncytial virus, strain not …, UniProt P03420, S155C | S290C | S190F | V207L).
T3 construct: source: FreeStyle 293-F, cotransfected with furin, on the cell surface
The following applies: one partner purified.

Experiment [5] concerns the target T4, RSV F variant in which the cytoplasmic tail was replaced with a Foldon trimerization motif, on the cell … (Respiratory syncytial virus, strain not …, UniProt P03420, stabilised).
T4 construct: source: FreeStyle 293-F or HeLa cells, cotransfected with furin, on the cell surface; not shown: Foldon trimerization motif, C-terminal, kept
The note with it: one partner purified.

A value given as a limit tells only on which side of the number the result lay.

In the case of motavizumab Fab, in experiment [1], the percent of CF-647-labeled CR9501 IgG binding blocked was under 20%.

B1: CR9501 IgG (antibody, V domains shown)
VH: QVQLVQSGPGLVKPSQTLALTCTVSGASINSDNYYWTWIRQRPGGGLEWIGHISYTGNTYYTPSLKSRLSMSLETSQSQFSLRLTSVTAADSAVYFCAACGAYVLISNCGWFDSWGQGTQVTVSS
VL: EIVMTQSPSSLSASIGDRVTITCQASQDISTYLNWYQQKPGQAPRLLIYGASNLETGVPSRFTGSGYGTDFSVTISSLQPEDIATYYCQQYQYLPYTFAPGTKVEIK
notes: also called CF-647-labeled CR9501 IgG
As for B1, the binding result in experiment [2], in experiment [3], in experiment [4] and in experiment [5] was “binds” in each case.

B2: CR9501 Fab (Fab, V domains shown)
VH: QVQLVQSGPGLVKPSQTLALTCTVSGASINSDNYYWTWIRQRPGGGLEWIGHISYTGNTYYTPSLKSRLSMSLETSQSQFSLRLTSVTAADSAVYFCAACGAYVLISNCGWFDSWGQGTQVTVSS
VL: EIVMTQSPSSLSASIGDRVTITCQASQDISTYLNWYQQKPGQAPRLLIYGASNLETGVPSRFTGSGYGTDFSVTISSLQPEDIATYYCQQYQYLPYTFAPGTKVEIK
For the molecule B2, the binding result in experiment [5] was “binds”.
